Measured values: publication PMC5157838 (Analytical chemistry, 2015)
Several values for one entry are separate records, joined by “and”; a condition that tells them apart may be missing. Equal values may be shown once.

Target: the molecule itself
Assay: native MS

B1: Glutamate dehydrogenase, purified from bovine liver (enzyme)
chain: not shown
  stoichiometry N: 6 and 12
